Source: article PMC8178753

Key:
[1] = test system: PkKKT2a central domain (551-679) (Perkinsela sp. CCAP 1560/4); assay: fluorescence anisotropy; conditions: fluorescein (6-FAMK) in place of T37 of forward strand; 25 mM Hepes pH 7.5, 50 mM NaCl, 1 mM TCEP; FA: 1 nM FAM-dsDNA, 20 min RT, read at 25°C; EMSA: 200 nM dsDNA, 0.78-30 µM protein, 30 min RT, native PAGE at 4°C
[2] = test system: designed zinc finger (Jantz and Berg, 2010) (synthetic construct); assay: fluorescence anisotropy; conditions: fluorescein (6-FAMK) in place of T9 of reverse strand; 25 mM Hepes pH 7.5, 50 mM NaCl, 1 mM TCEP; FA: 1 nM FAM-dsDNA, 20 min RT, read at 25°C; EMSA: 200 nM dsDNA, 0.78-30 µM protein, 30 min RT, native PAGE at 4°C

Row | Sequence | Kd [1] | Kd [2]
1 | CGCAGATCCGCGGGGCCCGTGCCGACGCGCGGGCATTGTCCGTGAGGTGA (double strand) [50 mer 74% GC FAM (BA2218)] | 0.5 µM | –
2 | CAATATGTAAGGTGTTTTGGTGTAAAACACGCATTCTTGCATAACATGCA (double strand) [50 mer CEN FAM (BA1674)] | 0.5 µM | –
3 | CGATCGTTGAGGCAGAACCTGATCA (double strand) [designed DNA FAM (BA3083)] | – | 0.008 µM
4 | AGGTAACTAGAAGAATTGTAATATTCTAAATGTTGATCCATTTGAATCAT (double strand) [50 mer 26% GC FAM (BA2216)] | 0.5 µM | –
